The record followed here is patent publication US20140045176.

Holding throughout (assay): cell_activity
For series [1], the system named is ZFN-224 L (CCR5) (Artificial Sequence). To be noted: as ZFN pair; T7E1, sorted RFP+GFP+ HEK293; unsorted 12%.
For series [2], the system named is Thumpd3 ZFN L (Artificial Sequence). Conditions: as ZFN pair; T7E1, sorted RFP+GFP+ mouse iPS-derived fibroblasts; unsorted 0.5%.
For series [3], the system named is Z891 L (CCR5 ZFN) (Artificial Sequence). To be noted: as ZFN pair; T7E1, sorted RFP+GFP+ HEK293; unsorted 0.8%.
Series [4] deals with Thumpd3 ZFN R (Artificial Sequence). Conditions: as ZFN pair; T7E1, sorted RFP+GFP+ mouse iPS-derived fibroblasts; unsorted 0.5%.
Series [5] relates to CMAH-ZFN L (Artificial Sequence). To be noted: as ZFN pair; T7E1, hygromycin-selected porcine ear cells; untreated 3.1%.
The test system of series [6] is Z891 R (CCR5 ZFN) (Artificial Sequence). Conditions: as ZFN pair; T7E1, sorted RFP+GFP+ HEK293; unsorted 0.8%.
Series [7] deals with ZFN-224 R (CCR5) (Artificial Sequence). Conditions: as ZFN pair; T7E1, sorted RFP+GFP+ HEK293; unsorted 12%.
Series [8] relates to CCR5 TALEN R (Artificial Sequence). Conditions: as TALEN pair; T7E1, sorted RFP+GFP+ HEK293; unsorted 0.5%; 30 C culture.
The subject of series [9] is CMAH-ZFN R (Artificial Sequence). Conditions: as ZFN pair; T7E1, hygromycin-selected porcine ear cells; untreated 3.1%.
The subject of series [10] is CCR5 TALEN L (Artificial Sequence). Conditions: as TALEN pair; T7E1, sorted RFP+GFP+ HEK293; unsorted 0.5%; 30 C culture.

For the sequence “GATGAGGATGAC (double strand) [ZFN-224_L half-site]”, the activity in series [1] was 69 % mutation.

In series [2], “CGAGCACGCCGC (double strand) [Thumpd3_L half-site]” displayed an activity of 46 % mutation.

“ATAGATGATGGG (double strand) [Z891_L half-site]” returned an activity in series [3] of 8.7 % mutation.

In turn, “GGAGACCGGAAG (double strand) [Thumpd3_R half-site]” had an activity in series [4] of 46 % mutation.

“AAGCAGGACCGA (double strand) [CMAH-ZFN_L half-site]” gave an activity in [5] of 12.1 % mutation.

“GTCGGGGAGAAG (double strand) [Z891_R half-site]” came in with an activity in series [6] of 8.7 % mutation.

Turning to “AAACTGCAAAAG (double strand) [ZFN-224_R half-site]”, the activity in series [7] amounted to 69 % mutation.

Take “TAGTTTCTGAACTTCTCCCC (double strand) [TALEN_R half-site]”: in series [8], the activity was found to be 4.3 % mutation.

For “CGAGGATGGTGG (double strand) [CMAH-ZFN_R half-site]”, the activity in series [9] was found to be 12.1 % mutation.

In series [10], “TGCATCAACCCCATCATC (double strand) [TALEN_L half-site]” yielded an activity of 4.3 % mutation.
